Laboratory results: the supplement of paper PMC9112550, “Optimization of the antimicrobial peptide Bac7 by deep mutational scanning” (BMC Biology, 2022)

tested on: Escherichia coli TOP10; test: shrunken log2 fold change of peptide-encoding DNA abundance (4.5 h post-induction vs induction); higher = less antimicrobial activity (less host growth inhibition); conditions: time post-induction: 4.5 h; library: site-saturation at positions 5, 18, 19, 20
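Further: peptides expressed intracellularly from a pBAD plasmid library in pooled LB shake-flask culture, induced with 0.3% L-arabinose, DNA abundance read by NGS, three biological replicates, DESeq2 with apeglm shrinkage.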

| Sequence | shrunken log2 fold change |
| --- | --- |
| RRIRLRPPRLPRPRPRPCRLPRP | -0.286 |
| RRIRLRPPRLPRPRPRPCRPPRP | -0.0863 |
| RRIRLRPPRLPRPRPRPCSFPRP | -0.051 |
| RRIRLRPPRLPRPRPRPCSKPRP | -0.0788 |
| RRIRLRPPRLPRPRPRPCTCPRP | -0.238 |
| RRIRLRPPRLPRPRPRPCTQPRP | -0.174 |
| RRIRLRPPRLPRPRPRPCTRPRP | -0.0398 |
| RRIRLRPPRLPRPRPRPCTSPRP | -0.114 |
| RRIRLRPPRLPRPRPRPCVAPRP | 0.238 |
| RRIRLRPPRLPRPRPRPCVMPRP | 0.025 |
| RRIRLRPPRLPRPRPRPCVTPRP | -0.498 |
| RRIRLRPPRLPRPRPRPCWGPRP | 0.00437 |
| RRIRLRPPRLPRPRPRPCYFPRP | -0.232 |
| RRIRLRPPRLPRPRPRPDAAPRP | 2.66 |
| RRIRLRPPRLPRPRPRPDADPRP | 1.25 |
| RRIRLRPPRLPRPRPRPDALPRP | -0.354 |
| RRIRLRPPRLPRPRPRPDANPRP | 0.0586 |
| RRIRLRPPRLPRPRPRPDDKPRP | -0.525 |
| RRIRLRPPRLPRPRPRPDEWPRP | -0.0118 |
| RRIRLRPPRLPRPRPRPDFLPRP | -0.181 |
| RRIRLRPPRLPRPRPRPDHFPRP | 0.0304 |
| RRIRLRPPRLPRPRPRPDHLPRP | -0.0674 |
| RRIRLRPPRLPRPRPRPDHPPRP | -0.123 |
| RRIRLRPPRLPRPRPRPDILPRP | -0.154 |
| RRIRLRPPRLPRPRPRPDKAPRP | 0.0248 |

| Sequence | shrunken log2 fold change |
| --- | --- |
| RRIRLRPPRLPRPRPRPDLIPRP | -0.0276 |
| RRIRLRPPRLPRPRPRPDLSPRP | -0.112 |
| RRIRLRPPRLPRPRPRPDMFPRP | -0.218 |
| RRIRLRPPRLPRPRPRPDMSPRP | -0.428 |
| RRIRLRPPRLPRPRPRPDNNPRP | -0.444 |
| RRIRLRPPRLPRPRPRPDPPPRP | 0.337 |
| RRIRLRPPRLPRPRPRPDQDPRP | -0.218 |
| RRIRLRPPRLPRPRPRPDTWPRP | 0.0224 |
| RRIRLRPPRLPRPRPRPDVPPRP | -0.284 |
| RRIRLRPPRLPRPRPRPDVVPRP | 0.0387 |
| RRIRLRPPRLPRPRPRPDWNPRP | -0.689 |
| RRIRLRPPRLPRPRPRPDYHPRP | -0.576 |
| RRIRLRPPRLPRPRPRPEAAPRP | 0.732 |
| RRIRLRPPRLPRPRPRPEAYPRP | 0.0406 |
| RRIRLRPPRLPRPRPRPECCPRP | 0.338 |
| RRIRLRPPRLPRPRPRPEESPRP | 0.012 |
| RRIRLRPPRLPRPRPRPEFIPRP | 0.0915 |
| RRIRLRPPRLPRPRPRPEFPPRP | -0.0973 |
| RRIRLRPPRLPRPRPRPEGDPRP | 0.0662 |
| RRIRLRPPRLPRPRPRPEIKPRP | -0.12 |
| RRIRLRPPRLPRPRPRPEINPRP | -0.0201 |
| RRIRLRPPRLPRPRPRPEIYPRP | -0.0581 |
| RRIRLRPPRLPRPRPRPEKAPRP | 0.166 |
| RRIRLRPPRLPRPRPRPEKWPRP | -0.0497 |
| RRIRLRPPRLPRPRPRPELFPRP | 0.303 |

| Sequence | shrunken log2 fold change |
| --- | --- |
| RRIRLRPPRLPRPRPRPELHPRP | 0.327 |
| RRIRLRPPRLPRPRPRPELVPRP | 0.113 |
| RRIRLRPPRLPRPRPRPENGPRP | -0.108 |
| RRIRLRPPRLPRPRPRPENRPRP | 0.097 |
| RRIRLRPPRLPRPRPRPERFPRP | 0.219 |
| RRIRLRPPRLPRPRPRPERPPRP | 0.157 |
| RRIRLRPPRLPRPRPRPESYPRP | -0.266 |
| RRIRLRPPRLPRPRPRPETGPRP | -0.0316 |
| RRIRLRPPRLPRPRPRPETMPRP | 0.0125 |
| RRIRLRPPRLPRPRPRPEWVPRP | 0.36 |
| RRIRLRPPRLPRPRPRPFEYPRP | -0.0121 |
| RRIRLRPPRLPRPRPRPFFAPRP | 0.169 |
| RRIRLRPPRLPRPRPRPFGAPRP | -0.0596 |
| RRIRLRPPRLPRPRPRPFGYPRP | -0.291 |
| RRIRLRPPRLPRPRPRPFHYPRP | -0.211 |
| RRIRLRPPRLPRPRPRPFINPRP | -0.572 |
| RRIRLRPPRLPRPRPRPFITPRP | -0.35 |
| RRIRLRPPRLPRPRPRPFKQPRP | -0.0215 |
| RRIRLRPPRLPRPRPRPFLAPRP | -0.141 |
| RRIRLRPPRLPRPRPRPFLEPRP | -0.106 |
| RRIRLRPPRLPRPRPRPFLPPRP | -0.171 |
| RRIRLRPPRLPRPRPRPFMRPRP | 0.495 |
| RRIRLRPPRLPRPRPRPFMWPRP | -0.121 |
| RRIRLRPPRLPRPRPRPFPVPRP | 0.11 |
| RRIRLRPPRLPRPRPRPFQGPRP | 0.0498 |

| Sequence | shrunken log2 fold change |
| --- | --- |
| RRIRLRPPRLPRPRPRPFRPPRP | 0.0752 |
| RRIRLRPPRLPRPRPRPFRWPRP | 0.202 |
| RRIRLRPPRLPRPRPRPFSEPRP | -0.0881 |
| RRIRLRPPRLPRPRPRPFSHPRP | -0.262 |
| RRIRLRPPRLPRPRPRPFSTPRP | 0.0382 |
| RRIRLRPPRLPRPRPRPFSYPRP | -0.747 |
| RRIRLRPPRLPRPRPRPFVAPRP | -0.0302 |
| RRIRLRPPRLPRPRPRPFWCPRP | -0.0123 |
| RRIRLRPPRLPRPRPRPFWKPRP | 0.379 |
| RRIRLRPPRLPRPRPRPFWYPRP | -0.0126 |
| RRIRLRPPRLPRPRPRPFYTPRP | -0.338 |
| RRIRLRPPRLPRPRPRPGADPRP | 0.28 |
| RRIRLRPPRLPRPRPRPGFDPRP | 0.137 |
| RRIRLRPPRLPRPRPRPGGWPRP | 0.71 |
| RRIRLRPPRLPRPRPRPGHLPRP | 0.00551 |
| RRIRLRPPRLPRPRPRPGIIPRP | -0.116 |
| RRIRLRPPRLPRPRPRPGIKPRP | -0.874 |
| RRIRLRPPRLPRPRPRPGIMPRP | -0.219 |
| RRIRLRPPRLPRPRPRPGKMPRP | -0.0508 |
| RRIRLRPPRLPRPRPRPGMCPRP | -0.0891 |
| RRIRLRPPRLPRPRPRPGMMPRP | 0.0343 |
| RRIRLRPPRLPRPRPRPGMVPRP | -0.0517 |
| RRIRLRPPRLPRPRPRPGNFPRP | -0.122 |
| RRIRLRPPRLPRPRPRPGNTPRP | -0.242 |
| RRIRLRPPRLPRPRPRPGRYPRP | -0.124 |

| Sequence | shrunken log2 fold change |
| --- | --- |
| RRIRLRPPRLPRPRPRPGTHPRP | -0.107 |
| RRIRLRPPRLPRPRPRPGVLPRP | 0.204 |
| RRIRLRPPRLPRPRPRPGVNPRP | 0.0348 |
| RRIRLRPPRLPRPRPRPGVPPRP | 0.0447 |
| RRIRLRPPRLPRPRPRPGVSPRP | -0.161 |
| RRIRLRPPRLPRPRPRPGWEPRP | 0.14 |
| RRIRLRPPRLPRPRPRPGWFPRP | 0.147 |
| RRIRLRPPRLPRPRPRPGYCPRP | -0.416 |
| RRIRLRPPRLPRPRPRPGYFPRP | -0.347 |
| RRIRLRPPRLPRPRPRPHANPRP | -0.293 |
| RRIRLRPPRLPRPRPRPHETPRP | -0.236 |
| RRIRLRPPRLPRPRPRPHKEPRP | 0.0165 |
| RRIRLRPPRLPRPRPRPHKFPRP | -0.138 |
| RRIRLRPPRLPRPRPRPHKWPRP | -0.0343 |
| RRIRLRPPRLPRPRPRPHMVPRP | -0.336 |
| RRIRLRPPRLPRPRPRPHMWPRP | -0.325 |
| RRIRLRPPRLPRPRPRPHNKPRP | -0.59 |
| RRIRLRPPRLPRPRPRPHNLPRP | -0.11 |
| RRIRLRPPRLPRPRPRPHNMPRP | -0.495 |
| RRIRLRPPRLPRPRPRPHNPPRP | -0.883 |
| RRIRLRPPRLPRPRPRPHNTPRP | -0.61 |
| RRIRLRPPRLPRPRPRPHPLPRP | -0.152 |
| RRIRLRPPRLPRPRPRPHSMPRP | -0.506 |
| RRIRLRPPRLPRPRPRPHTAPRP | -0.00187 |
| RRIRLRPPRLPRPRPRPHTCPRP | -0.339 |

| Sequence | shrunken log2 fold change |
| --- | --- |
| RRIRLRPPRLPRPRPRPHTDPRP | -0.223 |
| RRIRLRPPRLPRPRPRPHTLPRP | -0.224 |
| RRIRLRPPRLPRPRPRPHTNPRP | -0.377 |
| RRIRLRPPRLPRPRPRPHVEPRP | 0.522 |
| RRIRLRPPRLPRPRPRPHVWPRP | 0.198 |
| RRIRLRPPRLPRPRPRPHWYPRP | -0.128 |
| RRIRLRPPRLPRPRPRPHYPPRP | -0.736 |
| RRIRLRPPRLPRPRPRPHYRPRP | -0.0911 |
| RRIRLRPPRLPRPRPRPIAEPRP | 0.591 |
| RRIRLRPPRLPRPRPRPIAMPRP | -0.0743 |
| RRIRLRPPRLPRPRPRPIAYPRP | -0.0152 |
| RRIRLRPPRLPRPRPRPICQPRP | 0.0108 |
| RRIRLRPPRLPRPRPRPICRPRP | -0.13 |
| RRIRLRPPRLPRPRPRPIDIPRP | 0.00368 |
| RRIRLRPPRLPRPRPRPIDQPRP | 0.281 |
| RRIRLRPPRLPRPRPRPIEPPRP | 0.144 |
| RRIRLRPPRLPRPRPRPIFMPRP | -0.414 |
| RRIRLRPPRLPRPRPRPIFRPRP | 0.00696 |
| RRIRLRPPRLPRPRPRPIFWPRP | -0.189 |
| RRIRLRPPRLPRPRPRPIGRPRP | 0.0169 |
| RRIRLRPPRLPRPRPRPIKFPRP | -0.0676 |
| RRIRLRPPRLPRPRPRPILEPRP | -0.186 |
| RRIRLRPPRLPRPRPRPIMEPRP | -0.193 |
| RRIRLRPPRLPRPRPRPINIPRP | -0.735 |
| RRIRLRPPRLPRPRPRPINKPRP | -0.617 |
